System: lipopolysaccharide (LPS) induced fever model in SD rats
Experiment: Lipopolysaccharide (LPS) induced fever in SD rats
Assay type: in vivo
Settings: for Body temperature 2 hours after modeling / Body temperature 4 hours after modeling / Body temperature 6 hours after modeling / Body temperature 8 hours after modeling: LPS 20 μg/kg i.p.; for Body temperature 2 hours after modeling: model group 37.6 ± 0.1; for Body temperature 4 hours after modeling: model group 37.8 ± 0.1; for Body temperature 6 hours after modeling / Body temperature 8 hours after modeling: model group 37.8 ± 0.2
Method: • Animals: 230-260 grams of male SD rats; • Drugs: lipopolysaccharide (LPS, SIGMA L-2880), aspirin (SIGMA A2093), protein BD-3; Instruments: electronic balance (SARTORIUS BP121S type), electronic clinical thermometer (CITIZEN CT-513W type). • Experiment grouping: • Normal control group; • Model group: lipopolysaccharide fever model; • Positive control group: Aspirin 300 mg/kg group; • Protein BD-3, 10 mg/kg group, 50 mg/kg group. • Method: the method of intraperitoneal injection of Lipopolysaccharide to replicate rat fever model.
Preparation of experimental animals: After the experimental animals adapt to the experimental environment (temperature 22° C.±2° C., relative humidity 50%±2%) for 1 day. Pre-adaptation to measure rectal temperature at 8:00 and 15:00, rats were fasted and water was taken freely 12 h before experiment, and let the animal to empty its feces before measuring the rectal temperature. Apply petroleum jelly to the electronic thermometer probe before each temperature measurement. Insert the rat rectum 2 cm (can be marked at 2 cm to ensure that the depth of each insertion is consistent), and record the body temperature after the reading is stable.
Intraperitoneal injection of lipopolysaccharide to replicate rat fever model: The body temperature of the rats was measured before modeling. Qualified rats with a body temperature of 36.2-37.3° C. were selected and randomly divided into groups with 8 rats in each group. After oral administration of aspirin and different doses of protein BD-3, lipopolysaccharide (20 μg/kg, 2 ml/kg) was injected intraperitoneally immediately, and the normal control group was injected intraperitoneally with an equal volume of normal saline. The body temperatures of the rats were monitored after 2 hours for a total of 8 hours.
According to the body temperature measured at each time point on the day of the experiment, calculate the mean, standard deviation and standard error of the body temperature of each group of rats. The data of each group was compared with TTEST, and P<0.05 was considered as a significant difference.

B1: BD-3: recombinant keratin, amino acid sequence SEQ ID NO:1, expressed in E. coli, band around 43 kD; tested material prepared in Example 4 (protein, listed as Bos taurus)
chain: MSYSCCLPNLSFRSSCSSRPCVPSSCCGTTLPGACNIPANVGSCNWFCEGSFNGSEKETMQFLNDRLASYLEKVRQLERDNAELESRILERSQQKILANKAENARLVVQIDNAKLAADDFRTKYQTELGLRQLVESDINGLRRILDELTLCKSDLEAQVESLKEELICLKQNHEQEVNTLRSQLGDRLNVEVDAAPTVDLNRVLNETRAQYEALVETNRRDVEEWYIRQTEELNKQVVSSSEQLQSYQAEIIELRRTVNALEVELQAQHNLRDSLENTLTETEARYSCQLAQVQGLIGNVESQLAEIRSDLERQNQEYQVLLDVRARLECEINTYRGLLDSEDCKLPCNPCATTNASSVGSCVTNPCTPCGPRSRFGPCNTFGC
- Body temperature 2 hours after modeling (BD-3 10 mg/kg oral): 37.6 ± 0.1 °C
- Body temperature 4 hours after modeling (BD-3 10 mg/kg oral): 37.9 ± 0.2 °C
- Body temperature 6 hours after modeling (BD-3 10 mg/kg oral): 37.9 ± 0.2 °C
- Body temperature 8 hours after modeling (BD-3 10 mg/kg oral): 37.6 ± 0.2 °C
- Body temperature 2 hours after modeling (BD-3 50 mg/kg oral): 37.2 ± 0.2 °C
- Body temperature 4 hours after modeling (BD-3 50 mg/kg oral): 37.3 ± 0.2 °C
- Body temperature 6 hours after modeling (BD-3 50 mg/kg oral): 37.7 ± 0.3 °C
- Body temperature 8 hours after modeling (BD-3 50 mg/kg oral): 37.6 ± 0.2 °C
- Effect on body temperature of model rats (in words) (BD-3 50 mg/kg, at 2 hours and 4 hours after modeling, P<0.05 vs model group): can reduce the body temperature of model rats
- Summary: antipyretic effect in LPS fever model (in words) (summary statement, no dose given): has a significant effect of reducing body temperature rise at 2 hours and 4 hours after modeling

Reference: US20240124556A1, “KERATIN BD-3, PREPARATION METHOD THEREFOR AND PHARMACEUTICAL COMPOSITION AND USE THEREOF” (INSTITUTE OF MATERIA MEDICA, CHINESE ACADEMY OF MEDICAL …, priority 2019, published 2024)
